Reference: PMC3715890 (2013)

Molecular target: HIF-1alpha PAS-B (235-350) (Homo sapiens, UniProt Q16665)
Experiment: ITC

Sequence of HIF-1alpha PAS-B (235-350) (Q16665 235-350): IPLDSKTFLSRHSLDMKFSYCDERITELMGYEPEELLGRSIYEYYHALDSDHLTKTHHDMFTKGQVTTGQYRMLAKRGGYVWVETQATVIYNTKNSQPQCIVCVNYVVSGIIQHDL

Kd: 124 nM
B1: P1 (Tat-cyclo-CLLFVY) (peptide)
chain: cyclo(C(S‑S‑Tat)LLFVY)
